Data reported in PMC7229837, “Molecular architecture of the DNA-binding sites of the P-loop ATPases MipZ and ParA from Caulobacter crescentus”.
Numbering of substitutions follows the chain as printed.

Tests used:
Conditions in all cases: protein: recombinant; tags: C-terminal His6 (pET21a); chain copies: 2; label: Cy3 (5') on strand 1; blunt
MipZ R198A = biological target: T1, MipZ R198A (Caulobacter crescentus, UniProt Q9A6C9 1-278, R198A); experiment: MST; hardly any binding; EMSA: 10 mM HEPES/NaOH pH 7.2, 150 mM NaCl, 10 mM MgCl2, 0.05% Tween 20, 0.46 mM ATPgS, room temp; BLI: 50 mM HEPES/NaOH pH 7.2, 50 mM NaCl, 5 mM MgCl2, 0.1 mM
T1 sequence: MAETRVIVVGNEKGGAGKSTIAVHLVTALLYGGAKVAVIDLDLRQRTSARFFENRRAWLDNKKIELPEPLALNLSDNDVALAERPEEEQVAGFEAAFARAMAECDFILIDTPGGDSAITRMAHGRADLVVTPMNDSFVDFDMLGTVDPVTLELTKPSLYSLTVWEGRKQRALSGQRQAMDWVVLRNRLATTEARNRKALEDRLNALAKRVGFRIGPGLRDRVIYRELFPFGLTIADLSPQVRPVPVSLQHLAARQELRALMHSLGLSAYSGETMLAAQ

MipZ R194A = biological target: T2, MipZ R194A (Caulobacter crescentus, UniProt Q9A6C9 1-278, R194A); experiment: as above
T2 sequence: T1 sequence with R194A, A198R

MipZ R221A = biological target: T3, MipZ R221A (Caulobacter crescentus, UniProt Q9A6C9 1-278, R221A); experiment: as above
T3 sequence: T1 sequence with A198R, R221A

MipZ WT = biological target: T4, MipZ WT (Caulobacter crescentus, UniProt Q9A6C9 1-278); experiment: MST; EMSA: 10 mM HEPES/NaOH pH 7.2, 150 mM NaCl, 10 mM MgCl2, 0.05% Tween 20, 0.46 mM ATPgS, room temp; BLI: 50 mM HEPES/NaOH pH 7.2, 50 mM NaCl, 5 mM MgCl2, 0.1 mM
T4 sequence: T1 sequence with A198R

MipZ L248A = biological target: T5, MipZ L248A (Caulobacter crescentus, UniProt Q9A6C9 1-278, L248A); experiment: as above
T5 sequence: T1 sequence with A198R, L248A

MipZ D42A = biological target: T6, MipZ D42A (Caulobacter crescentus, UniProt Q9A6C9 1-278, D42A); experiment: as above
T6 sequence: T1 sequence with D42A, A198R

B1: rand-Cy3/rand-rev 26 bp (dsDNA)
DNA 1: GAGGCAGACTAGATCTTCTAGTTCGG
DNA 2: CCGAACTAGAAGATCTAGTCTGCCTC
Q: Does B1 bind (MipZ R198A)?
A: Result: no binding

Q: Does B1 bind (MipZ R194A)?
A: Result: no binding

Q: Does B1 bind (MipZ R221A)?
A: Result: no binding

Q: And the Kd (MipZ WT)?
A: Its Kd is < 10 µM.

Q: And the Kd (MipZ L248A)?
A: The Kd was < 10 µM.

Q: What about the Kd (MipZ D42A) of the same binder?
A: The Kd was < 10 µM.
